Data from patent publication US20110159003A1 (DOMANTIS, published 2011).
Positions count from the first letter of the chain named.

Legend:
[1] = target: variant IL-13 (R130Q) (human), P35225; test: cell-based or functional assay
human IL-4 [2] = target: T1, human IL-4 (human, UniProt P05112 25-153, biotinylated in the RBA and on the Biacore chip); test: DOM9 RBA (IL-4 RBA), binder titrated
T1 sequence (looked up): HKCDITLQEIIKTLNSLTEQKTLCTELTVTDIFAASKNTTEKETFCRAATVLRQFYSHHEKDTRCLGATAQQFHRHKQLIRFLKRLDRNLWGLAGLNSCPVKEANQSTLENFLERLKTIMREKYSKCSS

human IL-13 [3] = target: T2, human IL-13 (human, UniProt P35225 35-146, limits assumed, biotinylated on the Biacore chip); test: Dom10 RBA (text: IL-13 sandwich ELISA), binder titrated
T2 construct: also called interleukin-13; biotinylated IL-13

human IL-4 [4] = target: T1, human IL-4; test: cell-based or functional assay
human IL-13 [5] = target: T2, human IL-13; test: IL-13 sandwich ELISA, binder titrated; printed as potency
Protocol: A MAXISORP™ plate (high protein binding ELISA plate, Nunc, Denmark) was coated overnight with 2.5 μg/ml coating antibody (Module Set, Bender MedSystems, Vienna, Austria), then washed once with 0.05% (v/v) Tween 20 in PBS before blocking with 0.5% (w/v) BSA 0.05% (v/v) Tween 20 in PBS. […] The plate was then incubated with TMB substrate (KPL, Gaithersburg, USA), and the reaction was stopped by the addition of HCl and the absorbance read at 450 nm.

human IL-4 [6] = target: T1, human IL-4; test: IL-4 RBA (ELISA), binder titrated; printed as potency
Text: The wells were washed three times with 0.1% (v/v) Tween 20 in PBS, followed by three washes with PBS, before blocking with 2% (w/v) BSA in PBS. […] The reaction was stopped by the addition of HCl and the absorbance read at 450 nm.

T2 sequence (P35225 35-146 limits assumed): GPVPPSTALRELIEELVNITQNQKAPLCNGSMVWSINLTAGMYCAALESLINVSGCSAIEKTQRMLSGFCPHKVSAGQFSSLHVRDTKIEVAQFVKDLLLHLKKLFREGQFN
variant IL-13 (R130Q) (human), P35225, sequence (P35225 35-146, stated change not applied): as the sequence (P35225 35-146 limits assumed) above

B1: DOM10-53-316 (protein)
VH: GVQLLESGGGLVQPGGSLRLSCAASGFIFAWYDMGWARQAPGKGLEWVSSIDWHGEVTYYADSVKGRFTISRDNSKNTLYLQMNSLRAEDTAVYYCATAEDEPGYDYWGQGTLVTVSS
[1]
  TF-1 proliferation IC50, variant IL-13: 0.52 nM

B2: DOM10-176-535 (protein)
VL: DIQMTQSPSSLSASVGDRVTITCRASQWIGPYLNWYQQKPGKAPKPLIYMGYWAPSGVPSRFSGSGSGTDFTLTISSLQPEDFATYYCQQDLYPPFTFGQGTKVEIKR
[1]
  TF-1 proliferation IC50, variant IL-13: 7.8 nM

B3: DOM10-208-TVAAPS-DOM9-155-78 (bispecific antibody, from a related filing, part only)
chain: DIQMTQSPSSLSASVGDRVTITCRASSPITDGLAWYQQKPGKAPKLLIDTGSRLQSGVPSRFSGSGSGTDFTLTISSLQPEDFATYYCRQGAMGSYTFGQGTKVEIKRTVAAPSDIQMTQSPSSLSASVGDRVTITCRASRHIGDWLHWYQQKPGKAPKLLIAWASTLDSGVPSRFSGSGSGTDFTLTISSLQPEDFATYYCLQEGWGPPTFGQGTKVEIKR
Human IL-4 [2]
  IC50: 8.18 nM
Human IL-13 [3]
  EC50: 4240 nM

B4: DOM10-213 TVAAPS-DOM9-155-78 (bispecific antibody, from a related filing, part only)
chain: DIQMTQSPSSLSASVGDRVTITCRASQAIPWGLNWYQQKPGKAPKLLIYDVSSLQSGVPSRFSGSGSGTDFTLTISSLQPEDFATYYCQQDIHIPMTFGQGTKVEIKRTVAAPSDIQMTQSPSSLSASVGDRVTITCRASRHIGDWLHWYQQKPGKAPKLLIAWASTLDSGVPSRFSGSGSGTDFTLTISSLQPEDFATYYCLQEGWGPPTFGQGTKVEIKR
Human IL-4 [2]
  IC50: 6.91 nM
Human IL-13 [3]
  EC50: 62 nM

B5: DOM10-215 TVAAPS-DOM9-155-78 (bispecific antibody, from a related filing, part only)
chain: DIQMTQSPSSLSASVGDRVTITCRASQNIFADLNWYQQKPGKAPKLLIYMGSRLQSGVPSRFSGSGSGTDFTLTISSLQPEDFATYYCQQDYKFPLTFGQGTKVEIKRTVAAPSDIQMTQSPSSLSASVGDRVTITCRASRHIGDWLHWYQQKPGKAPKLLIAWASTLDSGVPSRFSGSGSGTDFTLTISSLQPEDFATYYCLQEGWGPPTFGQGTKVEIKR
Human IL-4 [2]
  IC50: 6.65 nM
Human IL-13 [3]
  EC50: 10.8 nM

B6: DOM10-224 TVAAPS-DOM9-155-78 (bispecific antibody, from a related filing, part only)
chain: B3 chain with S27P, P28N, T30A, D31V, G32D, D49R, T50G, G51V
Human IL-4 [2]
  IC50: 12.5 nM

B7: DOM9-44-502 (other)
VL: DIQMTQSPSSLSASVGDRVTITCRASQNINFWLRWYQQKPGKAPTLLIYDASRSQSGVPSRFSGSGSGTDFTLTISSLQPEDFATYYCQQDLMPPYTFGQGTKVEIKR
Human IL-4 [4]
  average inhibition of HDM induced PBMC proliferation at 100 nM dAb: 38%

B8: DOM9-112-22 (other)
VH: EVQLLESWGGLVQPGGSLRLSCAASGFTFRNYGMAWVRQAPGKGLEWISWIDASGTETYYADPVKGRFTISRDNSKNTLYLQMNSLRAEDTAVYYCAKSLGRFDYWGQGTLVTVSS
Human IL-4 [4]
  average inhibition of HDM induced PBMC proliferation at 100 nM dAb: 23%

B9: IgG:9-44-502×10-176-535 (bispecific antibody, V domains shown, not shown: a dimerising Fc or GST)
V domain 1: B7 VL
V domain 2: B2 VL
notes: IgG-like format from vector pDOM30 (heavy and light chain cassettes); also called dual specific IgG-like format
Human IL-13 [5]
  IC50: 1 nM
Human IL-4 [6]
  IC50: 13 nM
